This is an account of results in article doi:10.1101/2022.09.05.506423 (bioRxiv, 2022).

The target in assay [1] is AαBβγ half-molecule of human fibrinogen (human) (UniProt P02671). Description: SEC.
Assay [2] concerns the target T1, fibrinogen Bβ chain (human) (human, UniProt P02675 31-491, N-linked glycan at N364).
T1 sequence (looked up): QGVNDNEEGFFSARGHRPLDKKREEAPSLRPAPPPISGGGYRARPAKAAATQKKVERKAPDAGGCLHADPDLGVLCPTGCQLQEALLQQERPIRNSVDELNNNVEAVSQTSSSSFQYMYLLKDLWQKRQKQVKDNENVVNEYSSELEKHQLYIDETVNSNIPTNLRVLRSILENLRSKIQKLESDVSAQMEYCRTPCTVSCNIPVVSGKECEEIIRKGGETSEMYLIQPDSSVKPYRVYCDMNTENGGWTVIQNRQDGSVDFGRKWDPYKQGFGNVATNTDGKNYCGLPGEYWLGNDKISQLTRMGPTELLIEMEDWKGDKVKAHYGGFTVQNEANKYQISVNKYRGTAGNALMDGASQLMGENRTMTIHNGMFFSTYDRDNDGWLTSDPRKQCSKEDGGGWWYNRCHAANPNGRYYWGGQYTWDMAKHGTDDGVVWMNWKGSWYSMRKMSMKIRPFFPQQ
In words: SEC. (In general: Size exclusion chromatography separates by hydrodynamic size, large species first.)

Consider “AαBβγ half-molecule of human fibrinogen (from UniProt P02671-2 20-644; P02675 31-491; P02679-2 27-437) (complex)”, for which the stoichiometry N – broadly, a count of units in the complex or per binding partner – in assay [1] was found to be 2.

B1: fibrinogen γ chain, γ-A isoform (human) (natural protein, UniProt P02679-2 27-437, looked up)
chain: YVATRDNCCILDERFGSYCPTTCGIADFLSTYQTKVDKDLQSLEDILHQVENKTSEVKQLIKAIQLTYNPDESSKPNMIDAATLKSRKMLEEIMKYEASILTHDSSIRYLQEIYNSNNQKIVNLKEKVAQLEAQCQEPCKDTVQIHDITGKDCQDIANKGAKQSGLYFIKPLKANQQFLVYCEIDGSGNGWTVFQKRLDGSVDFKKNWIQYKEGFGHLSPTGTTEFWLGNEKIHLISTQSAIPYALRVELEDWNGRTSTADYAMFKVGPEADKYRLTYAYFAGGDAGDAFDGFDFGDDPSDKFFTSHNGMQFSTWDNDNDKFEGNCAEQDGSGWWMNKCHAGHLNGVYYQGGTYSKASTPNGYDNGIIWATWKTRWYSMKKTTMKIIPFNRLTIGEGQQHHLGGAKQAGDV
modifications: N-linked glycan at N52
Consider B1, for which the binding result in assay [2] is “binds”.
